Experiments:
[1] = target: recombinant human PDGF-BB (human, UniProt P01127 82-190); assay: cell-based or functional assay
[2] = target: recombinant human VEGF165 (human, UniProt P15692 207-395); assay: cell-based or functional assay
Chain of recombinant human VEGF165 (P15692 other isoform, or with tags, fused parts or gaps limits assumed): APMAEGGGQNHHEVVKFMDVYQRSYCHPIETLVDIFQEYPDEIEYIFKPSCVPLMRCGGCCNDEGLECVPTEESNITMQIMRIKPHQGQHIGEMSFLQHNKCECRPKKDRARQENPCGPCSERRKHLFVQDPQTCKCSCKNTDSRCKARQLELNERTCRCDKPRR

Chain of recombinant human PDGF-BB (P01127 82-190 limits assumed): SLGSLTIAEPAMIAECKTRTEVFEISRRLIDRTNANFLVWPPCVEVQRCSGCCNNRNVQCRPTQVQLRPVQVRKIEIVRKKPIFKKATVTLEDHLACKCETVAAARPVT

Potency IC50 (nM) NIH-3T3 hPDGF-BB [1] [nM]	Potency IC50 (nM) HMVEC-d hVEGF165 [2] [nM]	Binder
6.25	0.043	1E3.4_GS_3E2.1 (bispecific antibody, human IgG1, kappa, L234A L235A) heavy: EIQLVQSGSELKKPGASVKVSCKASGYPFTNSGMYWVKQAPGQGLEYMGWINTEAGKPTYADDFKGRFVFSLDTSVSTAYLQISSLKAEDTAVYFCARWGYISDNSYGWFDYWGQGTLVTVSSGGGGSGGGGSEVQLVQSGAEVKKPGSSVKVSCKASGYTFTESYMYWVKQAPGQGLELIGRIDPEDGSTDYVEKFKNKATLTADKSTSTAYMELSSLRSEDTAVYFCARFGARSYFYPMDAWGQGTTVTVSSASTKGPSVFPLAPSSKSTSGGTAALGCLVKDYFPEPVTVSWNSGALTSGVHTFPAVLQSSGLYSLSSVVTVPSSSLGTQTYICNVNHKPSNTKVDKKVEPKSCDKTHTCPPCPAPEAAGGPSVFLFPPKPKDTLMISRTPEVTCVVVDVSHEDPEVKFNWYVDGVEVHNAKTKPREEQYNSTYRVVSVLTVLHQDWLNGKEYKCKVSNKALPAPIEKTISKAKGQPREPQVYTLPPSREEMTKNQVSLTCLVKGFYPSDIAVEWESNGQPENNYKTTPPVLDSDGSFFLYSKLTVDKSRWQQGNVFSCSVMHEALHNAYTQKSLSLSPGK light: ATQLTQSPSSLSASVGDRVTISCRASEGVYSYMHWYQQKPGKQPKLLIYKASNLASGVPSRFSGSGSGTDFTLTISSLQPEDFATYFCHQNWNDPLTFGQGTKLEIKGGSGGGGSGGETVLTQSPATLSLSPGERATLSCRASESVSTLMHWYQQKPGQQPRLLIYGASNLESGVPARFSGSGSGTDFTLTISSLEPEDFAVYFCQQSWNDPWTFGGGTKVEIKRTVAAPSVFIFPPSDEQLKSGTASVVCLLNNFYPREAKVQWKVDNALQSGNSQESVTEQDSKDSTYSLSSTLTLSKADYEKHKVYACEVTHQGLSSPVTKSFNRGEC
0.035	0.219	CL-33675_GS_4G8.5 (bispecific antibody, human IgG1, kappa, L234A L235A) heavy: EVTLRESGPALVKPTQTLTLTCTFSGFSLSTYGMGVGWIRQPPGKALEWLANIWWDDDKYYNPSLKNRLTISKDTSKNQVVLTMTNMDPVDTATYYCARIESSGPKYSFDYWGQGTMVTVSSGGGGSGGGGSEIQLVQSGSELKKPGASVKVSCKASGYTFTNYGMYWVRQAPGQGLEYMGWINTETGKPTYADDFKGRFVFSLDTSVSTAYLQISSLKAEDTAVYFCARTNYYYRSYIFYFDYWGQGTMVTVSSASTKGPSVFPLAPSSKSTSGGTAALGCLVKDYFPEPVTVSWNSGALTSGVHTFPAVLQSSGLYSLSSVVTVPSSSLGTQTYICNVNHKPSNTKVDKKVEPKSCDKTHTCPPCPAPEAAGGPSVFLFPPKPKDTLMISRTPEVTCVVVDVSHEDPEVKFNWYVDGVEVHNAKTKPREEQYNSTYRVVSVLTVLHQDWLNGKEYKCKVSNKALPAPIEKTISKAKGQPREPQVYTLPPSREEMTKNQVSLTCLVKGFYPSDIAVEWESNGQPENNYKTTPPVLDSDGSFFLYSKLTVDKSRWQQGNVFSCSVMHEALHNAYTQKSLSLSPGK light: EIVLTQSPGTLSLSPGERATLSCRASSGSIWYSFVSWYQQKPGQAPRLLIYADDQRASGIPDRFSGSGSGTDFTLTISRLEPEDFAVYYCQSYGINIDVVFGGGTKVEIKGGSGGGGSGGATQLTQSPSLSASVGDRVTITCRASESVSTHMHWYQQKPGKQPKLLIYGASNLESGVPSRFSGSGSGTDFTLTISSLQPEDFATYFCQQSWNDPFTFGQGTKLEIKRTVAAPSVFIFPPSDEQLKSGTASVVCLLNNFYPREAKVQWKVDNALQSGNSQESVTEQDSKDSTYSLSSTLTLSKADYEKHKVYACEVTHQGLSSPVTKSFNRGEC
